Measured values taken from patent US20230151105A1 (HUTCHISON MEDIPHARMA, published 2023).

T1: human OX40 expressed on the cell surface (human, UniProt P43489 29-277)
T1 sequence (looked up): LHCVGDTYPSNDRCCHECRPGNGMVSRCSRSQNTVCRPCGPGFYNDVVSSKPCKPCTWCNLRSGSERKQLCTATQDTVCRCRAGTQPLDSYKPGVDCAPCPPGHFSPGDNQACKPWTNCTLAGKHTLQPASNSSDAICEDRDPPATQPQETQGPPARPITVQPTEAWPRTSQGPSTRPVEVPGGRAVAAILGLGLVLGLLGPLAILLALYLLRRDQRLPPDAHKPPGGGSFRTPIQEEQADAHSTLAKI

T2: recombinant human OX40-His protein (R & D Systems, Cat 9969-OX) (human, UniProt P43489 29-214)
T2 construct: extracellular domain; Bought protein; also called human OX40 protein; human OX40-His fusion protein; not shown: His tag
T2 sequence (looked up): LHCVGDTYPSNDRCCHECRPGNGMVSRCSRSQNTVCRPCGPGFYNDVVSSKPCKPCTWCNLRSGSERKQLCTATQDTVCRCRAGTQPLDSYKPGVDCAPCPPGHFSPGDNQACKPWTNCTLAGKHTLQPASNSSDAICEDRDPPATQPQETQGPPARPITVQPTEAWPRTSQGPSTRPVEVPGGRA

T3: recombinant OX40-Fc protein (R & D, Cat 3388-OX) (human, UniProt P43489 29-214)
T3 construct: extracellular domain; also called OX40 (R & D systems, Cat 3388-OX); not shown: Fc tag
T3 sequence (looked up): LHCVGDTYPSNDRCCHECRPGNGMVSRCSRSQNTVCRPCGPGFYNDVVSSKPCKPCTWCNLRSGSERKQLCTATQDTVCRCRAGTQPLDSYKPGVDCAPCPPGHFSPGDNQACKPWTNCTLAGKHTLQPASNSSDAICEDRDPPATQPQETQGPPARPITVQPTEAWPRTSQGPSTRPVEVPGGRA


Columns and labels:
[1] = biological target: T1, human OX40 expressed on the cell surface; assay: cell-based or functional assay
[2] = biological target: T1, human OX40 expressed on the cell surface; assay: FACS on activated human CD4+ T cells
From the text: (§1) Primary human PBMC were isolated from whole blood obtained from healthy donors through density gradient centrifugation with Ficoll-Paque PLUS (GE Healthcare, Cat 17-1440-02). After centrifuge, the cells in the middle layer were collected and washed 3 times with PBS to obtain PBMC. Then, human T cells were isolated with Pan T Cell Isolation Kit (Miltenyi biotec, Cat 130-096-535) by magnetic beads isolation method according to the protocol recommended by the instructions. T cells were resuspended in RPMI 1640 (containing 10% FBS and penicillin/streptomycin bi-antibiotics) medium, and PHA-L and IL-2 (or Con-A and hIL-2) were added for 2-day stimulation to induce the expression of OX40 from the T cells. The activated T cells were washed once with PBS containing 2% FBS, the serially diluted OX40 antibodies were added, and incubated at 4° C. for 30 minutes. The cells were washed twice with PBS containing 2% FBS, PE-labeled anti-human IgG secondary antibody (Biolegend, Cat 409304) (or PE-labeled anti-mouse IgG secondary antibody (Biolegend, Cat 405307)) and APC-CY7 labeled antibody human CD4 antibody (Biolegend, Cat 300518) were added. The binding of OX40 antibody on the surface of CD4 positive T cells was detected by BD Cantoll flow cytometry. A curve was fitted according to the median fluorescence intensity value, and EC₅₀ was calculated.

[3] = biological target: T2, recombinant human OX40-His protein (R & …); assay: ELISA, human OX40-His coated, anti-mouse IgG-HRP detection
Protocol: The recombinant human OX40-His (R & D, Cat 9969-OX) was coated onto 96-well plates. After blocking, serially diluted mouse serum or antibodies were added and incubated. After washing plates with PBS containing 0.5% Tween20, HRP-labeled anti-mouse IgG secondary antibody was added for incubation, and the plates were developed with […], and the OD450 value was read via a microplate reader.

[4] = biological target: T1, human OX40 expressed on the cell surface; assay: cell-based or functional assay; remark: listed apart in the source
[5] = biological target: T2, recombinant human OX40-His protein (R & …); assay: SPR (Biacore), antibody captured on anti-human Fc CM5 chip, human OX40-His as analyte, 1:1 Langmuir
From the text: Biacore is used to determine the binding kinetic parameters by measuring surface plasmon resonance (SPR). This technology was used to detect the microscopic rate constants of the binding (kₐ) and dissociation (kd) of an antibody and an antigen. Based on the kₐ and the kd values, the affinity value of the antibody to the antigen is obtained. Both Biacore instrument and reagents were purchased from GE Healthcare. In particular, anti-human Fc antibody was immobilized on a CM5 sensor chip. The supernatants containing expressed antibody or the purified antibodies were diluted in a mobile phase buffer (10 mM HEPES, 150 mM NaCl, 3 mM EDTA, 0.05% Tween-20, pH 7.4), and flowed through the CM5 chip coated with anti-human Fc antibody. Then the serially diluted human OX40-His fusion proteins flowed through the detection chip to measure the binding of the antigen to the antibody, and then the mobile phase buffer flowed through the chip to detect the dissociation of the antigen from the antibody. The binding and dissociation signal data of the antigen and the antibody were collected at different concentrations, and fitted to the 1:1 Langmuir model to calculate the affinity between the antigen and the antibody.

[6] = biological target: T1, human OX40 expressed on the cell surface; assay: cell-based or functional assay; remark: listed apart in the source
[7] = biological target: T1, human OX40 expressed on the cell surface; assay: FACS on activated human T cells
From the text: as §1
According to the detection method described in the preceding Example 1.2, FACS was used to analyze the binding activities of humanized antibodies to OX40 on activated human T cells.

[8] = biological target: T3, recombinant OX40-Fc protein (R & D, Cat …); assay: blocking ELISA: OX40-Fc coated, antibody titrated, competitor OX40L at 50 ng/ml
Protocol: The plate was washed 3 times with PBS containing 0.5% Tween-20 to remove unbound proteins, then the plates were blocked by adding PBS containing 1% BSA at 200 μl/well, at room temperature for 1 h. After washing the plate 3 times with PBS containing 0.5% Tween-20, the serially diluted anti-OX40 antibodies were added to the 96-well plate at 100 μl/well, and incubated for 1 h at room temperature. The plate was washed 3 times with PBS containing 0.5% Tween-20. […] The plate was washed. 200 μl TMB color developing solution was added to each well for color development, and the reaction was stopped with 2N H2504. On a microplate reader, the O.D. value was detected at 450 nm, and the background O.D. value was measured at 570 nm.

Row | Binder | Enhancement of IFNγ production by activated human T cells (ELISA), EC50 [1] | Ratio of IFNγ maximum effect to background (in fold) [1] | EC50 [2] | Agonistic activity on T cells, IFNγ release, EC50 [6] | maximum IFNγ concentration [6] | EC50 [7] | further results
1 | 11D4 (antibody, V domains shown) VH: EVQLVESGGGLVQPGGSLRLSCAASGFTFSSYSMNWVRQAPGKGLEWVSYISSSSSTIDYADSVKGRFTISRDNAKNSLYLQMNSLRDEDTAVYYCARESGWYLFDYWGQGTLVTVSS VL: DIQMTQSPSSLSASVGDRVTITCRASQGISSWLAWYQQKPEKAPKSLIYAASSLQSGVPSRFSGSGSGTDFTLTISSLQPEDFATYYCQQYNSYPPTFGGGTKVEIKR | 8 nM | 5.6 fold | 0.4 nM | – | – | – | T-cell agonistic activity, IFNγ released by T cells, EC50 [4]: 5.3 nM; Kd [5]: 2.51 nM; koff [5]: 0.000435 s⁻¹; kon [5]: 173000 M⁻¹ s⁻¹
2 | Hu38E11-v1 (antibody, human IgG1, V domains shown, also called Hu38E11-vl) VH: QVQLVQSGAEVKKPGASVKVSCKASGYTFTSYWVDWVRQAPGQGLEWIGNIYPSDSETHYNQKFKDRVTMTVDTSTSTVYMELSSLRSEDTAVYYCARSYGYYGTWFAYWGQGTLVTVSS VL: DIVMTQSPDSLAVSLGERATINCRASESVDSSGNSFMHWYQQKPGQPPKLLIYRASNLESGIPDRFSGSGSGTDFTLTISSVQAEDVAVYYCQQSNEDPWTFGGGTKLEIK | – | – | – | 0.7 nM | 21600 ng/mL | 5.03 nM | –
3 | Hu38E11 (IgG2) (antibody) heavy: QVQLVQSGAEVKKPGASVKVSCKASGYTFTSYWVDWVRQAPGQGLEWMGNIYPSDSETHYNQKFKDRVTMTRDTSTSTVYMELSSLRSEDTAVYYCARSYGYYGTWFAYWGQGTLVTVSSASTKGPSVFPLAPCSRSTSESTAALGCLVKDYFPEPVTVSWNSGALTSGVHTFPAVLQSSGLYSLSSVVTVPSSNFGTQTYTCNVDHKPSNTKVDKTVERKCCVECPPCPAPPVAGPSVFLFPPKPKDTLMISRTPEVTCVVVDVSHEDPEVQFNWYVDGVEVHNAKTKPREEQFNSTFRVVSVLTVVHQDWLNGKEYKCKVSNKGLPAPIEKTISKTKGQPREPQVYTLPPSREEMTKNQVSLTCLVKGFYPSDIAVEWESNGQPENNYKTTPPMLDSDGSFFLYSKLTVDKSRWQQGNVFSCSVMHEALHNHYTQKSLSLSPGK VL: DIVMTQSPDSLAVSLGERATINCRASESVDSSGNSFMHWYQQKPGQPPKLLIYRASNLESGVPDRFSGSGSGTDFTLTISSLQAEDVAVYYCQQSNEDPWTFGGGTKLEIK | – | – | – | – | – | – | T-cell agonistic activity, IFNγ released by T cells, EC50 [4]: 1.6 nM
4 | Hu38E11 (IgG1 N297A) (antibody, name in EU numbering, Hu38E11 variable regions with a human IgG1 constant region carrying N297A; also called Hu38E11 (hIgG1 N297A)) heavy: not shown VL: DIVMTQSPDSLAVSLGERATINCRASESVDSSGNSFMHWYQQKPGQPPKLLIYRASNLESGVPDRFSGSGSGTDFTLTISSLQAEDVAVYYCQQSNEDPWTFGGGTKLEIK | – | – | – | – | – | – | blocking of OX40L-mediated T cell activation, IFNγ secretion, IC50 [4]: 0.3 nM; inhibition of the expression of luciferase reporter gene under the control of NF-κB, IC50 [4]: 0.2 nM; IC50 [8]: ~0.3 nM

More lines, main results first:

Row | Enhancement of IFNγ production by activated human T cells (ELISA), EC50 [1] | Ratio of IFNγ maximum effect to background (in fold) [1] | EC50 [2] | Agonistic activity on T cells, IFNγ release, EC50 [6] | maximum IFNγ concentration [6] | EC50 [7] | Binder | further results
5 | 1.4 nM | 7.6 fold | 0.8 nM | – | – | – | hybridoma-derived antibody 38E11 (antibody, V domains shown, Murine antibody purified from hybridoma supernatant by protein A) VH: QVQLQQPGAELVRPGSSVQLSCKASGYTFTSYWVDWVKQRPGQGLQWIGNIYPSDSETHYNQKFKDKATLTVDKSSSTAYMQLSSLTSEDSAVYYCARSYGYYGTWFAYWGQGTLVTVSA VL: DIVLTQSPASLAVSLGQRATISCRASESVDSSGNSFMHWYQQKPGQPPKLLIYRASNLESGIPARFSGSGSRTDFTLTINPVEADDVATYYCQQSNEDPWTFGGGTKLEIK | EC50 [3]: 0.276 nM
6 | – | – | – | 1.7 nM | 22500 ng/mL | 3.48 nM | Hu38E11-v3 (antibody, human IgG1, V domains shown) VH: QVQLVQSGAEVKKPGASVKVSCKASGYTFTSYWVDWVRQAPGQGLEWMGNIYPSDSETHYNQKFKDRVTMTRDTSTSTVYMELSSLRSEDTAVYYCARSYGYYGTWFAYWGQGTLVTVSS VL: DIVMTQSPDSLAVSLGERATINCRASESVDSSGNSFMHWYQQKPGQPPKLLIYRASNLESGIPDRFSGSGSGTDFTLTISSVQAEDVAVYYCQQSNEDPWTFGGGTKLEIK | –
7 | – | – | – | 0.9 nM | 21700 ng/mL | 3.02 nM | Hu38E11-v4 (antibody, human IgG1, V domains shown) VH: QVQLVQSGAEVKKPGASVKVSCKASGYTFTSYWVDWVRQAPGQGLEWIGNIYPSDSETHYNQKFKDRVTMTVDTSTSTAYMELSSLRSEDSAVYYCARSYGYYGTWFAYWGQGTLVTVSS VL: DIVMTQSPDSLAVSLGERATINCRASESVDSSGNSFMHWYQQKPGQPPKLLIYRASNLESGIPDRFSGSGSGTDFTLTISSLQAEDVAVYYCQQSNEDPWTFGGGTKLEIK | –
8 | – | – | – | 1 nM | 22500 ng/mL | 3.35 nM | Hu38E11-v2 (antibody, human IgG1, V domains shown) VH: QVQLVQSGAEVKKPGASVKVSCKASGYTFTSYWVDWVRQAPGQGLEWIGNIYPSDSETHYNQKFKDRVTMTVDTSTSTAYMELSSLRSEDSAVYYCARSYGYYGTWFAYWGQGTLVTVSS VL: DIVMTQSPDSLAVSLGERATINCRASESVDSSGNSFMHWYQQKPGQPPKLLIYRASNLESGVPDRFSGSGSGTDFTLTISSLQAEDVAVYYCQQSNEDPWTFGGGTKLEIK | –
9 | – | – | – | 2.4 nM | 24800 ng/mL | 4.56 nM | humanized 38E11 antibody Hu38E11 (IgG1) (antibody) heavy: not shown VL: DIVMTQSPDSLAVSLGERATINCRASESVDSSGNSFMHWYQQKPGQPPKLLIYRASNLESGVPDRFSGSGSGTDFTLTISSLQAEDVAVYYCQQSNEDPWTFGGGTKLEIK | expression of the luciferase reporter gene under the control of NF-κB, EC50 [4]: 0.7 nM; Kd [5]: 2.36 nM; koff [5]: 0.000394 s⁻¹; kon [5]: 167000 M⁻¹ s⁻¹
10 | 14.7 nM | 9.4 fold | 1.3 nM | 7.1 nM | 27400 ng/mL | 6.23 nM | OX40mAb24 (antibody, V domains shown) VH: QVQLQESGPGLVKPSQTLSLTCAVYGGSFSSGYWNWIRKHPGKGLEYIGYISYNGITYHNPSLKSRITINRDTSKNQYSLQLNSVTPEDTAVYYCARYKYDYDGGHAMDYWGQGTLVTVSS VL: DIQMTQSPSSLSASVGDRVTITCRASQDISNYLNWYQQKPGKAPKLLIYYTSKLHSGVPSRFSGSGSGTDYTLTISSLQPEDFATYYCQQGSALPWTFGQGTKVEIKR | –
